Results taken from PMC9463278, “Development and Validation of Arc Nanobodies: New Tools for Probing Arc Dynamics and Function” (Neurochemical Research, 2022).

B1: mutant rat Arc (Arc^s113−119A) (natural protein, UniProt Q63053 1-396, looked up)
chain: MELDHMTTGGLHAYPAPRGGPAAKPNVILQIGKCRAEMLEHVRRTHRHLLTEVSKQVERELKGLHRSVGKLENNLDGYVPTGDSQRWKKSIKACLCRCQETIANLERWVKREAAAAAAAFYRLERWADRLESMGGKYPVGSEPARHTVSVGVGGPEPYCQEADGYDYTVSPYAITPPPAAGELPEQESVGAQQYQSWVPGEDGQPSPGVDTQIFEDPREFLSHLEEYLRQVGGSEEYWLSQIQNHMNGPAKKWWEFKQGSVKNWVEFKKEFLQYSEGTLSREAIQRELDLPQKQGEPLDQFLWRKRDLYQTLYVDAEEEEIIQYVVGTLQPKFKRFLRHPLPKTLEQLIQRGMEVQDGLEQAAEPSVTPLPTEDETEALTPALTSESVASDRTQPE
notes: Activity-regulated cytoskeleton-associated protein (Arc, Arg3.1), rat; residues of the oligomerization motif 113-MHVWREV-119 substituted to alanine; also called purified mutant Arc^s113−119A protein; activity-regulated cytoskeleton-associated protein; source: purified recombinant

What was measured:
[1] = target: Arc NL (Rattus norvegicus) (UniProt Q63053); test: ITC; details: cited from earlier work
[2] = target: the molecule itself; test: native gel or EMSA; different amounts of purified Arc^s113−119A in native sample buffer, native PAGE on 4-15% Tris-Glycine gels; bands detected by immunoblotting with ALFA-ArcNbs and anti-ALFA HRP-coupled sdAb

Row | Molecule | Kd [1] | binding result [2]
1 | stargazin (from UniProt Q71RJ2) | 34.9 nM | –
2 | B1 | – | binds
